# Source: article PMC11925332, “Structural Insights and Reaction Profile of a New Unspecific Peroxygenase from Marasmius wettsteinii Produced in a Tandem-Yeast Expression System” (ACS Chemical Biology, 2024)
# B1: MweUPO-1 (Marasmius wettsteinii) (protein)
# chain: SAHPWKAPGPNDSRGPCPGLNTLANHGFLPRNGRNISVPMIVKAGFEGYNVQSDILILAGKVGMLTSREADTISLEDLKLHGTIEHDASLSREDVAIGDNLHFNEAIFTTLANSNPGADVYNISSAAQVQHDRLADSVARNPNVTNTDLTATIRSSESAFYLTVMSAGDPLRGEAPKKFVNVFFQEERMPIKEGWKRSTTPINLPLLGPIIDRITELSDWKPTGDNCGAIVLGPGL
# Experiments:
# [1] = biological target: Recombinant unspecific peroxygenase MweUPO-1 from Marasmius wettsteinii (Marasmius wettsteinii); experiment: crystal structure; deglycosylated (Endo H) MweUPO-1, 11 mg/mL in 50 mM sodium citrate pH 5.6; sitting-drop vapor diffusion at 18 °C, 10-20% (v/v) PEG 4000, 0.2 M (NH4)2SO4; space group P43212, two molecules per asymmetric unit
# purified protein [2] = substrate: COc1cccc(OC)c1O; experiment: purified protein; type: biochemical, Marasmius wettsteinii; details: 2 mM H2O2; 100 mM potassium phosphate pH 5.0 per table footnote (methods section says phosphate pH 6.0)
# purified protein [3] = substrate: COc1ccc(CO)cc1OC; experiment: purified protein; details: 2 mM H2O2; 100 mM potassium phosphate pH 5.0 per table footnote (methods section says phosphate pH 7.0)
# purified protein [4] = substrate: CCn1c(=NN=c2sc3cc(S(=O)(=O)O)ccc3n2CC)sc2cc(S(=O)(=O)O)ccc21; experiment: purified protein; details: 2 mM H2O2, 100 mM Britton-Robinson buffer pH 4.0 per table footnote (methods section says phosphate/citrate pH 4.0)
molecule,measurement,setting,value
Recombinant unspecific peroxygenase MweUPO-1 from Marasmius wettsteinii (enzyme),stoichiometry N,[1],2
B1,Km,purified protein [2],220 ± 1 µM
same,kcat,purified protein [2],61.6 ± 0.85 s⁻¹
same,kcat/Km,purified protein [2],285000 M⁻¹ s⁻¹
same,Km,purified protein [3],260 ± 80 µM
same,kcat,purified protein [3],22.5 ± 0.73 s⁻¹
same,kcat/Km,purified protein [3],87600 M⁻¹ s⁻¹
same,Km,purified protein [4],30 ± 3 µM
same,kcat,purified protein [4],15.5 ± 0.68 s⁻¹
same,kcat/Km,purified protein [4],534000 M⁻¹ s⁻¹
